Each block holds one molecule with its values, some of them ahead of it.
B1: soluble form of human B7-2 (ligand)
chain: APLKIQAYFNETADLPCQFANSQNQSLSELVVFWQDQENLVLNEVYLGKEKFDSVHSKYMGRTSFDSDSWTLRLHNLQIKDKGLYQCIIHHKKPTGMIRIHQMNSELSVLANFSQPEIVPISNITENVYINLTCSSIHGYPEPKKMSVLLRTKNSTIEYDGVMQKSQDNVTELYDVSISLSVSFPDVTSNMTIFCILETDKTRLLSSPFSIELEDPQPPPDHIP
notes: also called soluble B7-2
B2: B7-1 expressed on transfected COS cells (ligand)
chain: VIHVTKEVKEVATLSCGHNVSVEELAQTRIYWQKEKKMVLTMMSGDMNIWPEYKNRTIFDITNNLSIVILALRPSDEGTYECVVLKYEKDAFKREHLAEVTLSVKADFPTPSISDFEIPTSNIRRIICSTSGGFPEPHLSWLENGEELNAINTTVSQDPETELYAVSSKLDFNMTTNHSFMCLIKYGHLRVNQTFNWNTTKQEHFPDNLLPSWAITLISVNGIFVICCLTYCFAPRCRERRRNERLRRESVRPV
notes: whole, on cells; also called CD80
B3: B7-2 expressed on transfected COS cells (ligand)
chain: APLKIQAYFNETADLPCQFANSQNQSLSELVVFWQDQENLVLNEVYLGKEKFDSVHSKYMGRTSFDSDSWTLRLHNLQIKDKGLYQCIIHHKKPTGMIRIHQMNSELSVLANFSQPEIVPISNITENVYINLTCSSIHGYPEPKKMSVLLRTKNSTIEYDGVMQKSQDNVTELYDVSISLSVSFPDVTSNMTIFCILETDKTRLLSSPFSIELEDPQPPPDHIPWITAVLPTVIICVMVFCLILWKWKKKKRPRNSYKCGTNTMEREESEQTKKREKIHIPERSDEAQRVFKSSKTSSCDKSDTCF
notes: whole, on cells; also called CD86
B4: soluble form of human B7-1 (ligand)
chain: VIHVTKEVKEVATLSCGHNVSVEELAQTRIYWQKEKKMVLTMMSGDMNIWPEYKNRTIFDITNNLSIVILALRPSDEGTYECVVLKYEKDAFKREHLAEVTLSVKADFPTPSISDFEIPTSNIRRIICSTSGGFPEPHLSWLENGEELNAINTTVSQDPETELYAVSSKLDFNMTTNHSFMCLIKYGHLRVNQTFNWNTTKQEHFPDN
notes: also called soluble B7-1
B5: murine PD-1-Fc (Fc fusion, UniProt Q02242 25-167, looked up)
chain: LEVPNGPWRSLTFYPAWLTVSEGANATFTCSLSNWSEDLMLNWNRLSPSNQTEKQAAFCNGLSQPVQDARFQIIQLPNRHDFHMNILDTRRNDSGIYLCGAISLHPKAKIEESPGAELVVTERILETSTRYPSPSPKPEGRFQ
notes: also called murine PD-1.Ig; mouse PD-1; not shown: Fc portion
B6: murine ICOS-his fusion protein (receptor, UniProt Q9WVS0 21-144, looked up)
chain: EINGSADHRMFSFHNGGVQISCKYPETVQQLKMRLFREREVLCELTKTKGSGNAVSIKNPMLCLYHLSNNSVSFFLNNPDSSQGSYYFCSLSIFDPPPFQERNLSGGYLHIYESQLCCQLKLWL
notes: not shown: his tag
B7: IA^d expressed on CHO transfectants (CHO-IA^d) (other)
alpha: EDDIEADHVGFYGTTVYQSPGDIGQYTHEFDGDELFYVDLDKKKTVWRLPEFGQLILFEPQGGLQNIAAEKHNLGILTKRSNFTPATNEAPQATVFPKSPVLLGQPNTLICFVDNIFPPVINITWLRNSKSVTDGVYETSFLVNRDHSFHKLSYLTFIPSDDDIYDCKVEHWGLEEPVLKHWEPEIPAPMSELTETVVCALGLSVGLVGIVVGTIFIIQGLRSGGTSRHPGPL
beta: GNSERHFVVQFKGECYYTNGTQRIRLVTRYIYNREEYVRYDSDVGEYRAVTELGRPDAEYWNSQPEILERTRAEVDTACRHNYEGPETSTSLRRLEQPNVAISLSRTEALNHHNTLVCSVTDFYPAKIKVRWFRNGQEETVGVSSTQLIRNGDWTFQVLVMLEMTPHQGEVYTCHVEHPSLKSPITVEWRAQSESARSKMLSGIGGCVLGVIFLGLGLFIRHRSQKGPRGPPPAGLLQ
notes: present on CHO-IA^d, CHO-IA^d/B7.2 and CHO-IA^d/B7.2/B7-4; copies: 1 + 1

What was measured:
[1] = biological target: PD-1 on T cells (species not stated); assay: cell-based or functional assay
[2] = biological target: T1, human PD-1-Fc (human Ig gamma 1) (human, UniProt P01857 99-330 = IgG part); assay: BIACORE, PD-1-Fc immobilized
T1 construct: domain: hinge-CH2-CH3; also called human PD-1 linked to IgG1

[3] = biological target: T1, human PD-1-Fc (human Ig gamma 1); assay: flow cytometry on B7-1-transfected COS cells, anti-IgG-PE
Description: COS cells were transfected with either B7-4M or B7-1 using LipofectAMINE transfection reagent. […] The cells were then analyzed by flow cytometry.

[4] = biological target: T1, human PD-1-Fc (human Ig gamma 1); assay: in situ staining of transfected COS cell monolayers
Description: In addition, an in situ assay of transfected COS cell monolayers was performed. […] Binding was visualized with chromogenic substrates 5-bromo-4-chloro-3-indolyl phosphate and nitro blue tetrazolium and light microscopy.

[5] = biological target: T2, human B7-4M expressed on transfected COS or CHO cells (human, UniProt Q9NZQ7 19-290); assay: flow cytometry on CHO cells expressing human B7-4
T2 construct: Full-length B7-4M cDNA expressed on COS or CHO cells; also called PD-L1

[6] = biological target: T3, murine B7-4 expressed on transfected cells (murine, UniProt Q9EP73 19-290); assay: flow cytometry on CHO cells expressing murine B7-4
T3 construct: also called mouse B7-4; mB7-4

[7] = biological target: T2, human B7-4M expressed on transfected …; assay: flow cytometry on B7-4M-transfected COS cells
[8] = biological target: B2; assay: flow cytometry (FITC) on B7-1-transfected COS cells
[9] = biological target: T4, human PD-1 fused to murine Ig gamma2a (human; murine, UniProt P01863 98-330 = IgG part, limits assumed); assay: flow cytometry on CHO-IA^d cells, hPD-1-Ig developed with goat anti-murine IgG2a-PE
T4 construct: domain: hinge-CH2-CH3; The Fc mutations are not specified; also called human PD-1 gamma 2a fusion protein; hPD-1-Ig
Description: In addition, cells were stained separately with 5 μg/ml anti-IA^d-PE or B7.2-PE (Pharmingen, San Diego, Calif.). Following each step, cells were washed three times with PBS/1% BSA/0.02% sodium azide. After the final incubation, cells were fixed with 1% paraformaldehyde. Ten thousand events were analyzed on a FACSCalibar (Becton Dickinson, Mountain View, Calif.). All isotype controls were obtained from Pharmingen.

T1 sequence (P01857 other isoform, or with tags, fused parts or gaps limits assumed): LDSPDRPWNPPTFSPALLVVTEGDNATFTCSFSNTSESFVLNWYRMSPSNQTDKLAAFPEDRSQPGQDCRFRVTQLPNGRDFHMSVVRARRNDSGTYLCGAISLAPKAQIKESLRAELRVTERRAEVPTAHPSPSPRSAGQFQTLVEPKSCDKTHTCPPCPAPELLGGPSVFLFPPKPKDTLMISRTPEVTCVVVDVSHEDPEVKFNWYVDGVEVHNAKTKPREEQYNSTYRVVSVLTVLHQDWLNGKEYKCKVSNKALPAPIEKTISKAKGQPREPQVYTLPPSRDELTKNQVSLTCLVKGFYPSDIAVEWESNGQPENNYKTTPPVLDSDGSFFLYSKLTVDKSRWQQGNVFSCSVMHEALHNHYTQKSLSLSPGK
T2 sequence (Q9NZQ7 19-290): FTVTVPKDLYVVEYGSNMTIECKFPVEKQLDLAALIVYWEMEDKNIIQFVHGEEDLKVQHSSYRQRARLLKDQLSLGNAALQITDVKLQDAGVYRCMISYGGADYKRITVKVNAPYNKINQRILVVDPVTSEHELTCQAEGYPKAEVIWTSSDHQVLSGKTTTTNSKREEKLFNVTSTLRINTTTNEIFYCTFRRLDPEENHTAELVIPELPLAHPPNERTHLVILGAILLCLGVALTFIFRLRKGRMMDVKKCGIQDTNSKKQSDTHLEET
T4 sequence (P01863 other isoform, or with tags, fused parts or gaps limits assumed): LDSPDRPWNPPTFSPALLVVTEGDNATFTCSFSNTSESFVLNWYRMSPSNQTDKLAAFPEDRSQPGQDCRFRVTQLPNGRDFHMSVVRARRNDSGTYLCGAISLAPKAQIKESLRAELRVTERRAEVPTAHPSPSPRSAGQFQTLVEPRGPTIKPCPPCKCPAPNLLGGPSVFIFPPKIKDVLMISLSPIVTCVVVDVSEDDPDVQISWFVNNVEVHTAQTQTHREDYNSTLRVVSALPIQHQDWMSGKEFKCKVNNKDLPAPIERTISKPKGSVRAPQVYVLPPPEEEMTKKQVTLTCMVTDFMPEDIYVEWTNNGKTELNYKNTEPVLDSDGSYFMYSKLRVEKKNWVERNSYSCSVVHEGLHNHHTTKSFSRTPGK
T3 sequence (Q9EP73 19-290 limits assumed): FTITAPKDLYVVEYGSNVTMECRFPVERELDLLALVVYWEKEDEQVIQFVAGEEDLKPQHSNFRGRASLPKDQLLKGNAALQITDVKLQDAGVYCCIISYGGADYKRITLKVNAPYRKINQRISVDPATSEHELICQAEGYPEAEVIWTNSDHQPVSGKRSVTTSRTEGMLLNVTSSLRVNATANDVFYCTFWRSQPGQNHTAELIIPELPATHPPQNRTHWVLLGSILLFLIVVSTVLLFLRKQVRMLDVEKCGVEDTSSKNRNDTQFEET

% CD69+ T cells at 24 hours, anti-CD3/B7-4.Fc (anti-CD3 alone 26%) [1]: 26%
% CD69+ T cells at 48 hours, anti-CD3/B7-4.Fc (anti-CD3 alone 46%) [1]: 36%
% CD69+ T cells at 72 hours, anti-CD3/B7-4.Fc (anti-CD3 alone 63%) [1]: 42%
% IL-2R+ (CD25) T cells at 24 hours, anti-CD3/B7-4.Fc (anti-CD3 alone 17%) [1]: 12%
% IL-2R+ (CD25) T cells at 48 hours, anti-CD3/B7-4.Fc (anti-CD3 alone 29%) [1]: 17%
% IL-2R+ (CD25) T cells at 72 hours, anti-CD3/B7-4.Fc (anti-CD3 alone 54%) [1]: 15%
% apoptotic T cells (propidium iodide and annexin positive) at 24 hours, anti-CD3/B7-4.Fc (anti-CD3 alone 3%) [1]: 3%
% apoptotic T cells at 48 hours, anti-CD3/B7-4.Fc (anti-CD3 alone 5%) [1]: 4%
% apoptotic T cells at 72 hours, anti-CD3/B7-4.Fc (anti-CD3 alone 10%) [1]: 12%
Molecule: B7-4.Fc / PDL1.Ig fusion protein (species not stated) (Fc fusion)

Molecule: B1
binding result [2]: no binding

Molecule: B2
binding result [3]: no binding

Molecule: B3
binding result [4]: no binding

Molecule: B4
binding result [2]: no binding

Molecule: B5
binding result [5]: binds
binding result [6]: binds

Molecule: B6
binding result [7]: no binding
binding result [8]: no binding

Molecule: B7
binding result [9]: no binding (tested: 5 ug/ml)

Reference: patent US20030044768A1 (Dana-Farber, published 2003)
